The target of the experiment is T1, G93A-hSOD1-CFP (human, UniProt P00441 2-154, G93A).
T1 construct: Transiently expressed in NSC-34 cells; FRET donor; also called G93A SOD1-CFP; pECFP-G93A-hSOD1; not shown: CFP (from pECFP plasmid) attached to the C-terminus of SOD1
Put plainly: FACS sorting of cells without G93A SOD1-CFP/MDH1-YFP FRET after transfection of the myc-tagged MDH1 peptide library.

T1 sequence (P00441 2-154 G94A): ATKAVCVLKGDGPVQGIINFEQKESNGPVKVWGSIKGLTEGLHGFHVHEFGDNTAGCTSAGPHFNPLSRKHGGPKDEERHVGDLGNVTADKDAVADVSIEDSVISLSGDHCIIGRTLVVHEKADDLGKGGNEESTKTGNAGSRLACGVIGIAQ

B1: myc-tagged peptide 217-239 of cytMDH (peptide)
peptide: SWLKGEFITTVQQRGAAVIKARK
notes: Expressed from a plasmid inside NSC-34 cells; not shown: human myc tag in frame with the peptide
On to B1, for which the binding result is on record as “binds”.

B2: myc-tagged peptide 14-27 of cytMDH (peptide)
peptide: GQIAHSLLYSIGNG
notes: Expressed from a plasmid inside NSC-34 cells; also called myc-tagged 14-27 peptide; not shown: human myc tag in frame with the peptide
Regarding B2, the binding result is recorded as “binds”.

For the origin of these results see patent US20100279943A1 (RAMAT AT TEL AVIV UNIVERSITY, published 2010).
